{"source": "patent US11401512", "test_in_all_cases": "cell_activity", "key": {"[1]": {"system": "71728 ZFN (right, albumin) F3 m5Q; FokI P478S (synthetic)"}, "[2]": {"system": "47898-FLAG ZFN (right, albumin) (synthetic)"}, "[3]": {"system": "71557 ZFN (left, albumin) F1 m5Q, F3 m5Q; FokI N542D (synthetic)"}, "[4]": {"system": "SBS47171-FLAG ZFN (left, albumin) (synthetic)"}, "[5]": {"conditions": "off-target, pair 71557/71728, AAV 600K MOI"}, "[6]": {"conditions": "off-target, pair 47171/47898, AAV 600K MOI"}}}
{"substance": "CCTATCCATTGCACTATGCTTTATTTAA (double strand) [albumin right ZFN half-site]", "values": [{"measurement": "activity", "setting": "[1]; with 71557, primary human hepatocytes, AAV 600K MOI, day 10", "value": 44.2, "unit": "% indels"}, {"measurement": "activity", "setting": "[2]; with 47171, primary human hepatocytes, AAV 600K MOI, day 10", "value": 25.4, "unit": "% indels"}]}
{"substance": "SMCHD1 off-target site", "values": [{"measurement": "activity", "setting": "[1]; [5]", "value": 0.34, "unit": "% indels"}, {"measurement": "activity", "setting": "[2]; [6]", "value": 0.36, "unit": "% indels"}, {"measurement": "activity", "setting": "[3]; [5]", "value": 0.34, "unit": "% indels"}, {"measurement": "activity", "setting": "[4]; [6]", "value": 0.36, "unit": "% indels"}]}
{"substance": "TTTGGGATAGTTATGAATTCAATCTTCA (double strand) [albumin left ZFN half-site (A/T allele)]", "values": [{"measurement": "activity", "setting": "[3]; with 71728, primary human hepatocytes, AAV 600K MOI, day 10", "value": 44.2, "unit": "% indels"}, {"measurement": "activity", "setting": "[4]; with 47898, primary human hepatocytes, AAV 600K MOI, day 10", "value": 25.4, "unit": "% indels"}]}
